Test results reported in patent publication US20210206865A1 (Regeneron, published 2021).
Changes are numbered by the printed parent chain.

T1: human BCMA on the surface of cell lines (NCI-H929, MM.1S, OPM-2, RPMI-8226, Daudi, Raji, MOLP-8, U266) (human, UniProt Q02223 1-184)
T1 sequence: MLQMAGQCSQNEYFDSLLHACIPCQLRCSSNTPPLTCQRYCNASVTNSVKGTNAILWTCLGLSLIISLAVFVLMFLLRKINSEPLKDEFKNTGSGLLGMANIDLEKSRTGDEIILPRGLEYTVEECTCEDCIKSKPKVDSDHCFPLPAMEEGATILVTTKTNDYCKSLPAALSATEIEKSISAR

T2: mouse BCMA-MFC (BCMA with C-terminal mFc tag) (mouse)
T2 construct: Tested at a single concentration of 30 nM; also called mBCMA.mFc
T2 chain: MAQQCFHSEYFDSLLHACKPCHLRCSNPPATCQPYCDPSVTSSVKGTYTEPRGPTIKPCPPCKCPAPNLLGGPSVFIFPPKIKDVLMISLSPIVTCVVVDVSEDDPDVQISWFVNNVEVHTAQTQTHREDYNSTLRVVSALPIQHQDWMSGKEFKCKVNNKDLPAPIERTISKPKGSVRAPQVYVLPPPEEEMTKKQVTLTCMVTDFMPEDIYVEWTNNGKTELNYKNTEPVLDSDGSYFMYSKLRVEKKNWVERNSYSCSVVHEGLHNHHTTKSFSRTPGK

B1: bsAb25441D bispecific antibody (REGN5458), anti-BCMA x anti-CD3 (bispecific antibody, human IgG4 S228P, kappa)
heavy 1: EVQLVESGGGLVQPGGSLRLSCAASGFTFSNFWMTWVRQAPGKGLEWVANMNQDGSEKYYVDSVKGRFTISRDNAKSSLYLQMNSLRAEDTAVYYCARDREYCISTSCYDDFDYWGQGTLVTVSSASTKGPSVFPLAPCSRSTSESTAALGCLVKDYFPEPVTVSWNSGALTSGVHTFPAVLQSSGLYSLSSVVTVPSSSLGTKTYTCNVDHKPSNTKVDKRVESKYGPPCPPCPAPPVAGPSVFLFPPKPKDTLMISRTPEVTCVVVDVSQEDPEVQFNWYVDGVEVHNAKTKPREEQFNSTYRVVSVLTVLHQDWLNGKEYKCKVSNKGLPSSIEKTISKAKGQPREPQVYTLPPSQEEMTKNQVSLTCLVKGFYPSDIAVEWESNGQPENNYKTTPPVLDSDGSFFLYSRLTVDKSRWQEGNVFSCSVMHEALHNHYTQKSLSLSLGK
heavy 2: EVQLVESGGGLVQPGRSLRLSCAASGFTFDDYSMHWVRQAPGKGLEWVSGISWNSGSKGYADSVKGRFTISRDNAKNSLYLQMNSLRAEDTALYYCAKYGSGYGKFYHYGLDVWGQGTTVTVSSASTKGPSVFPLAPCSRSTSESTAALGCLVKDYFPEPVTVSWNSGALTSGVHTFPAVLQSSGLYSLSSVVTVPSSSLGTKTYTCNVDHKPSNTKVDKRVESKYGPPCPPCPAPPVAGPSVFLFPPKPKDTLMISRTPEVTCVVVDVSQEDPEVQFNWYVDGVEVHNAKTKPREEQFNSTYRVVSVLTVLHQDWLNGKEYKCKVSNKGLPSSIEKTISKAKGQPREPQVYTLPPSQEEMTKNQVSLTCLVKGFYPSDIAVEWESNGQPENNYKTTPPVLDSDGSFFLYSRLTVDKSRWQEGNVFSCSVMHEALHNRFTQKSLSLSPGK
light: not shown
notes: Anti-BCMA arm from mAb21581, anti-CD3 arm and common light chain from mAb7221G; also called bsAb25441D9; mAb25441D
B2: bsAb25442D bispecific antibody (REGN5459), anti-BCMA x anti-CD3 (bispecific antibody, human IgG4 S228P, kappa)
heavy 1: B1 heavy 1
heavy 2: B1 heavy 2 with K58I, H108Y, L111M
light: not shown
notes: Anti-BCMA arm from mAb21581, anti-CD3 arm and common light chain from mAb7221G20; also called mAb25442D; mAb25442D-A647

Legend:
[1] = target: T1, human BCMA on the surface of cell lines …; assay: cell-based or functional assay
[2] = target: T3, monkey BCMA-MMH (monkey BCMA with C-terminal myc-myc-hexahistidine tag) (monkey); assay: SPR Biacore, 25 C, mAb captured via anti-hFc
T3 construct: Monomeric antigen; also called mfBCMA.mmh
Procedure: (§1) The CM5 Biacore sensor surface was derivatized by amine coupling with a monoclonal mouse anti-human Fc antibody (GE, #BR-1008-39) to capture purified anti-BCMA mAbs and anti-BCMA×anti-CD3 bispecific mAbs. All Biacore binding studies were performed in a buffer composed of 0.01M HEPES pH 7.4, 0.15M NaCl, 3 mM EDTA, 0.05% v/v Surfactant P20 (HBS-ET running buffer). […] Antigen samples were then injected over the anti-BCMA and anti-BCMA×anti-CD3 bispecific mAbs captured surfaces at a flow rate of 30 μL/minute. Antibody-reagent association was monitored for 5 minutes while dissociation in HBS-ET running buffer was monitored for 10 minutes. All of the binding kinetics experiments were performed at 25° C. Kinetic association (kₐ) and dissociation (kd) rate constants were determined by fitting the real-time sensorgrams to a 1:1 binding model using Scrubber 2.0c curve fitting software. Binding dissociation equilibrium constants (KD) and dissociative half-lives (t1/2) were calculated from the kinetic rate constants as: […]

[3] = target: T2, mouse BCMA-MFC (BCMA with C-terminal …); assay: SPR Biacore, 25 C, mAb captured via anti-hFc
Procedure: as §1

[4] = target: T4, human CD3 on cells (Jurkat cells, primary human CD8+ T cells) (human, UniProt P07766 23-207; P04234 22-171; P20963 22-164; P09693 23-182); assay: flow cytometry, Jurkat cells (human CD3), median EC50, n=5
T4 construct: CD3 complex as part of the TCR on T cells; also called hCD3; Jurkat-hCD3
T4 sequence (P07766 23-207 limits assumed, chain 1 of 4): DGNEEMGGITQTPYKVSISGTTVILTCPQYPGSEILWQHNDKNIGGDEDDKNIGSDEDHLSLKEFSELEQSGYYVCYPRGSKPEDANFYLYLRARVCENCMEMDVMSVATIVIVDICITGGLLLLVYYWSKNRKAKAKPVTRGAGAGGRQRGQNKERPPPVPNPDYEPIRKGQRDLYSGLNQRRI
T4 sequence (P04234 22-171 limits assumed, chain 2 of 4): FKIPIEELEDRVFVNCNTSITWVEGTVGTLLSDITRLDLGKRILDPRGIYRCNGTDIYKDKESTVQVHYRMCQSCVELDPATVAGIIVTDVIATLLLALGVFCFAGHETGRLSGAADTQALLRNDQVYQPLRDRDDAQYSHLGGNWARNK
T4 sequence (P20963 22-164 limits assumed, chain 3 of 4): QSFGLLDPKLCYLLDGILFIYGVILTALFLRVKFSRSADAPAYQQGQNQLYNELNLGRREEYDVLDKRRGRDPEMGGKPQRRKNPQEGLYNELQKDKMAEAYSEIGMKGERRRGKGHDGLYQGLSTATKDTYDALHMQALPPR
T4 sequence (P09693 23-182 limits assumed, chain 4 of 4): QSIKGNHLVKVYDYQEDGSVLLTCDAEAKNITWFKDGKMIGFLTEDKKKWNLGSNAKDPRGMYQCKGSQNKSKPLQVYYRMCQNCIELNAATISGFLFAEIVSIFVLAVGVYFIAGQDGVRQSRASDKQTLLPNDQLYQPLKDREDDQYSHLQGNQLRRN
Procedure: (§2) Flow cytometric analysis was utilized to determine binding of BCMA×CD3 bispecific antibodies to human and cynomolgus CD3 (Jurkat cells, mfCD3 engineered Jurkat cells, primary human CD8+ and cynomolgus CD8+ T cells). Briefly, 1e05 cells/well were incubated in the presence of FACS wash with block (PBS+1% filtered FBS+5% mouse serum) with a serial dilution of BCMA×CD3 and control antibodies for 30 minutes on ice. After incubation, the cells were washed twice with cold FACS wash (PBS+1% filtered FBS) and bound antibody was detected by incubating with Alexa647-conjugated anti-human secondary antibody on ice for an additional 30 minutes. Wells containing no antibody or secondary only were used as a control. For the detection of monkey and human T cells, a cocktail of human and cynomolgus cross-reactive antibodies to CD4, CD8 and CD16 was added to the anti-human secondary. After incubation, cells were washed, re-suspended in 200 μL cold PBS containing 1% filtered FBS and analyzed by flow cytometry on a BD FACS Canto II. Cells were gated by FSC-H by FSC-A to select singlet events, followed by side and forward scatters to select for live events. For monkey T cells, additional gating on CD8+/CD16-cells was performed.
(§3) EC50 values for FACS binding were calculated using 4-parameter non-linear regression analysis in Prism software.

[5] = target: T5, cynomolgus CD3 on cells (mfCD3 engineered Jurkat cells, primary cynomolgus CD8+ T cells) (cynomolgus, UniProt Q95LI5 22-198; Q95LI8 22-171); assay: flow cytometry, primary cynomolgus CD8+ T cells, median EC50, n=1
T5 construct: whole, on cells; The engineered Jurkat line expresses cynomolgus CD3 epsilon and delta in place of the human versions (other chains remain human); primary cynomolgus T cells carry the whole cynomolgus complex; also called Jurkat-mfCD3; Mf (Cyno) CD3
T5 sequence (Q95LI5 22-198, stated change not applied, chain 1 of 2): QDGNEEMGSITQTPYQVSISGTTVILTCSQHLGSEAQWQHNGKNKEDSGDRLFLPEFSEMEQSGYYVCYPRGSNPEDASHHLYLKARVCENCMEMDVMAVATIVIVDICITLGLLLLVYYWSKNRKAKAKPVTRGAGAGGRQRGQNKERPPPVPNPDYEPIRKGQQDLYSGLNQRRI
T5 sequence (Q95LI8 22-171, stated change not applied, chain 2 of 2): as the sequence (P04234 22-171 limits assumed, chain 2 of 4) above, with I5V, N15K, I20V, S32T, D33N, I34N, T64A, S74N, V83L, H141R counted along it
Procedure: as §2, §3

[6] = target: T1, human BCMA on the surface of cell lines …; assay: flow cytometry, Alexa647 conjugate on MM.1S cells
Procedure: (§4) Cells were then washed and fixed for 25 mins at 4° C. using a 50% solution of BD Cytofix (BD, Cat #554655) diluted in PBS. […] After gating for live cells and single cells, the mean fluorescent intensity (MFI) was determined, and MFI values were plotted in Graphpad Prism using a four-parameter logistic equation over a 10-point response curve to calculate EC₅₀s. The zero condition for each dose-response curve is also included in the analysis as a continuation of the two-fold serial dilution and is represented as the lowest dose.

[7] = target: T1, human BCMA on the surface of cell lines …; assay: flow cytometry, Alexa647 conjugate on OPM-2 cells
Procedure: as §4

[8] = target: T1, human BCMA on the surface of cell lines …; assay: flow cytometry, Alexa647 conjugate on NCI-H929 cells
Procedure: as §4

Binder	Median EC50, % Survival of Molp8 target cells, human effector cells [1]	Median EC50, % Survival of RPMI8226 target cells, human effector cells [1]	Median EC50, % T activation with Molp8 target cells, human effector cells [1]	Median EC50, % T activation with RPMI8226 target cells, human effector cells [1]	90 nM mfBCMA.mmh Bind (RU) [2]	Kd [2]	t1/2 [2]	30 nM mBCMA.mFc Bind (RU) [3]	binding result [3]	EC50 [4]	EC50 [5]	koff [2]	kon [2]	EC50 [6]	S/N (ratio of mAb25442D-A647 MFI to Isotype-A647 MFI) [6]	EC50 [7]	S/N (ratio of mAb25442D-A647 MFI to Isotype-A647 MFI) [7]	EC50 [8]	S/N (ratio of mAb25442D-A647 MFI to Isotype-A647 MFI) [8]
B1	0.707 nM	0.0345 nM	1.1 nM	0.0649 nM	14.8 RU	49.9 nM	1.3 min	2.7 RU	no binding (tested: 30 nM)	15 nM	46.6 nM								
B2	1.36 nM	0.106 nM	6.47 nM	0.75 nM	12.7 RU	38.8 nM	1.3 min	2.4 RU	no binding (tested: 30 nM)	558 nM		0.00864 s⁻¹	223000 M⁻¹ s⁻¹	83 nM	43	57 nM	19	79 nM	470
